The text below walks through data of patent US7572771.

Assay [1] concerns the target human ABCA1 transporter (ATP-binding cassette transporter A1) (human) (UniProt O95477). The assay is described as follows: two-step sequential competition on ABCA1-transfected HeLa cells; competitor at 8 µM, tracer 125I-L-37pA.
Assay [2] shares this target. The assay is described as follows: cell-based or functional assay.
Assay [3] has the same target. The assay is described as follows: 125I-L-37pA (1 µg/ml, 1 hour, 4° C.) bound to ABCA1-transfected HeLa cells, no competitor.

Where “and” joins values, the source holds several entries; their conditions need not be identical. Identical values can stand only once. Where no end group is shown, it is not given here.

Chain of UniProt O95477 (O95477 whole entry): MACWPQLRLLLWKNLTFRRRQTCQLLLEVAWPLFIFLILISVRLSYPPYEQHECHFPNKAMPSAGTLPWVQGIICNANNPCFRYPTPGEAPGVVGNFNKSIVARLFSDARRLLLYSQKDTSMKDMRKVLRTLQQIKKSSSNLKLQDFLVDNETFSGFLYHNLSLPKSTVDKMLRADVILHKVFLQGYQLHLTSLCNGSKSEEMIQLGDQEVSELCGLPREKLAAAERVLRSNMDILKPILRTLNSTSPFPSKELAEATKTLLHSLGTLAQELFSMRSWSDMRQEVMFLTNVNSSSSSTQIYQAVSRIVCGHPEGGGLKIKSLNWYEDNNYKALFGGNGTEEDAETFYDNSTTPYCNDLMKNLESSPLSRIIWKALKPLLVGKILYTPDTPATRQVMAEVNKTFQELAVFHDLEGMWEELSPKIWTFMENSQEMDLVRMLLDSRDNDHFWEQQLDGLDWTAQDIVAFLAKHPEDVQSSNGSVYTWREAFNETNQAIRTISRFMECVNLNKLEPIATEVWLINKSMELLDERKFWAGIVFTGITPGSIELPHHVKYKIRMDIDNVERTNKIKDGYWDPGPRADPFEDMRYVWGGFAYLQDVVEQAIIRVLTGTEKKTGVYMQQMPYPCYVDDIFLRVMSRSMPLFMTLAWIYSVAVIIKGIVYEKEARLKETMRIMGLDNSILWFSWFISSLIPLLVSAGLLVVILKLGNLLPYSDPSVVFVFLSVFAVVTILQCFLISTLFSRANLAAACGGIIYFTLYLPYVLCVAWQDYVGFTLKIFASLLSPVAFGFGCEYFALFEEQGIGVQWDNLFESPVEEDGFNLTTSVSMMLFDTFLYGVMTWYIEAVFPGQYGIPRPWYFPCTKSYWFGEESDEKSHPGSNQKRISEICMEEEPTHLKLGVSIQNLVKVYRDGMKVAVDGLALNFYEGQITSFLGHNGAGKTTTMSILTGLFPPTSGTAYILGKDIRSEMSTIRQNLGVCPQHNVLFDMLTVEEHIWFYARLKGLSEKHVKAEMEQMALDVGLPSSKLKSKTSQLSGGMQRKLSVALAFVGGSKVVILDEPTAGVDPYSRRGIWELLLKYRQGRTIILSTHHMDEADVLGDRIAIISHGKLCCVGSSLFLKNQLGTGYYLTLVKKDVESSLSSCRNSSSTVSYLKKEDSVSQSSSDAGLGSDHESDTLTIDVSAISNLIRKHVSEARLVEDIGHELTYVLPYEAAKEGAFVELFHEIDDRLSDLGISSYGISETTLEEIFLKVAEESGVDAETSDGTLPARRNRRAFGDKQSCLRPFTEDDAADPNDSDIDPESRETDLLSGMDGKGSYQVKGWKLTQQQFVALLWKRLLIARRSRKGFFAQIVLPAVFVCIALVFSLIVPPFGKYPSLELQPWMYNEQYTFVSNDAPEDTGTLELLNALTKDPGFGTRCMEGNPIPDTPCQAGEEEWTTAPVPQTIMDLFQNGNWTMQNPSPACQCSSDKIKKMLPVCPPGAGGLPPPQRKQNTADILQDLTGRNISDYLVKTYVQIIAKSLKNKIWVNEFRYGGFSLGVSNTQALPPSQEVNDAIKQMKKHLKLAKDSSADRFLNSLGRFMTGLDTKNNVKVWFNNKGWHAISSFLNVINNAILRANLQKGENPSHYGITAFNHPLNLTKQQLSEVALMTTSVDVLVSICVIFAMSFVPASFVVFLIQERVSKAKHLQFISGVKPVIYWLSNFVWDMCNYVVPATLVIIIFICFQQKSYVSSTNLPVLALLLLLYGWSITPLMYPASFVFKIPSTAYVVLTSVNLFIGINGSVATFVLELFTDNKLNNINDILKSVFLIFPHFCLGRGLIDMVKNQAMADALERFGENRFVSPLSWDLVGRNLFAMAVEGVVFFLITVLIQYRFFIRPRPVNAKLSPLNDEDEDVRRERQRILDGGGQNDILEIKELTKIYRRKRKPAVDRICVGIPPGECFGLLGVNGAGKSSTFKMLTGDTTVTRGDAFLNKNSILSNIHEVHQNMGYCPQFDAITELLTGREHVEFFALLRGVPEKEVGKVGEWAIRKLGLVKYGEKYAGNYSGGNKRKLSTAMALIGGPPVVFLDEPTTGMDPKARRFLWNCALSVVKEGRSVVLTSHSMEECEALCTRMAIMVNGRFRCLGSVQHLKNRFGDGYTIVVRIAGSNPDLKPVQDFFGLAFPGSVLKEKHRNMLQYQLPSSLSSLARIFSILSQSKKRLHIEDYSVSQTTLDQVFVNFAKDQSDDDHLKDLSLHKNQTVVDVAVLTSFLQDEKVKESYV

DWLKAFYDKVAEKLKEAFPDWLKAFYDKVAEKLKEAF (also: tracer form 125I-labelled with iodine monochloride) [L-37pA peptide] had a percent of labeled L-37pA binding blocked in assay [1] of 40%. In assay [2], the cholesterol and phospholipid efflux, ABCA1 cells against control cells is 2 fold and 4 fold; the concentration at which lipid efflux begins to show saturation came to 2 µM. This molecule displayed a cell-bound radiolabeled peptide in the absence of a competitor (pmol/mg cell protein) in assay [3] of 35.
